Experimental data: patent publication US10428140B2, “Anti-EphA4 antibody” (EISAI R&D MANAGEMENT CO., LTD., priority 2015, dated 2019)

What was measured:
Assay in all cases: Selectivity ELISA of humanized antibodies for human Eph receptor
Assay type in all cases: binding
Conditions in all cases: coated protein 1 nM
human EphA7 = target: T1, human EphA7 (Homo sapiens, UniProt Q15375)
T1 construct: a protein of the extracellular region of each human Eph receptor fused with the SEAP protein and the His tag; made in house; host or cells: Expi293F cells (culture supernatant)
T1 sequence (Q15375 28-555 limits assumed): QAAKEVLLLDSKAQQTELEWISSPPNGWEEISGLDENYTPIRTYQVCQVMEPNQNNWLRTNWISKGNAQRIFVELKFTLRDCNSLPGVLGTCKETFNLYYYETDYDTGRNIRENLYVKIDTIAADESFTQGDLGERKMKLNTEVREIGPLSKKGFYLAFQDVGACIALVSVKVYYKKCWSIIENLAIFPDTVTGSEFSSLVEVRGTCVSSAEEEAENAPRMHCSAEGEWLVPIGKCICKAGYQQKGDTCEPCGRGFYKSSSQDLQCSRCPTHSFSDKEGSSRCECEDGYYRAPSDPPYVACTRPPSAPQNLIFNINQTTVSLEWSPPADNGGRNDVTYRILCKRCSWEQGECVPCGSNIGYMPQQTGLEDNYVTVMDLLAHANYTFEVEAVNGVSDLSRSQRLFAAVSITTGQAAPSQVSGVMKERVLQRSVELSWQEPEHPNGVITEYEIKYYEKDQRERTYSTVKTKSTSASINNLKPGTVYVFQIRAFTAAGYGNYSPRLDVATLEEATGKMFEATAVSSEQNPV
Procedure, shortened: (§1)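 Read-out is A450 after TMB development stopped with 1N H2SO4. Plates bore anti-His-captured human Eph extracellular region-SEAP-His proteins at 1 nM final, made in Expi293F cells. Humanized antibody binding ran 1 h at room temperature before HRP-labeled anti-IgG detection.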

human EphA6 = target: T2, human EphA6 (Homo sapiens, UniProt Q9UF33)
T2 construct: a protein of the extracellular region of each human Eph receptor fused with the SEAP protein and the His tag; made in house; host or cells: Expi293F cells (culture supernatant)
T2 sequence (Q9UF33 23-550 limits assumed): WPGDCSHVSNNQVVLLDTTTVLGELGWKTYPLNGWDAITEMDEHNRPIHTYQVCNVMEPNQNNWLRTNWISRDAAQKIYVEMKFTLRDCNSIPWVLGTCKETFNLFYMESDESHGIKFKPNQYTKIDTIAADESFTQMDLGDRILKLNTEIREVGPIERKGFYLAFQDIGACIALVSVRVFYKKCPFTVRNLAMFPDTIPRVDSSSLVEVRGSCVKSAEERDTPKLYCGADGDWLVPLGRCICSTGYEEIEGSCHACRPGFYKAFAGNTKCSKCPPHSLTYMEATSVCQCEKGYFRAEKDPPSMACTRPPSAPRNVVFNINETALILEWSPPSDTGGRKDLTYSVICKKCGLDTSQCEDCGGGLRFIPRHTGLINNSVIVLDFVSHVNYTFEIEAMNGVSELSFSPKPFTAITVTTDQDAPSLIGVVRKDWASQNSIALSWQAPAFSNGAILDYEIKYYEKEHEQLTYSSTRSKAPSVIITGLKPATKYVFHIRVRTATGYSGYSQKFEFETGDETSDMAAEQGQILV
Procedure, shortened: as §1

human EphA3 = target: T3, human EphA3 (Homo sapiens, UniProt P29320)
T3 construct: a protein of the extracellular region of each human Eph receptor fused with the SEAP protein and the His tag; made in house; host or cells: Expi293F cells (culture supernatant)
T3 sequence (P29320 21-541 limits assumed): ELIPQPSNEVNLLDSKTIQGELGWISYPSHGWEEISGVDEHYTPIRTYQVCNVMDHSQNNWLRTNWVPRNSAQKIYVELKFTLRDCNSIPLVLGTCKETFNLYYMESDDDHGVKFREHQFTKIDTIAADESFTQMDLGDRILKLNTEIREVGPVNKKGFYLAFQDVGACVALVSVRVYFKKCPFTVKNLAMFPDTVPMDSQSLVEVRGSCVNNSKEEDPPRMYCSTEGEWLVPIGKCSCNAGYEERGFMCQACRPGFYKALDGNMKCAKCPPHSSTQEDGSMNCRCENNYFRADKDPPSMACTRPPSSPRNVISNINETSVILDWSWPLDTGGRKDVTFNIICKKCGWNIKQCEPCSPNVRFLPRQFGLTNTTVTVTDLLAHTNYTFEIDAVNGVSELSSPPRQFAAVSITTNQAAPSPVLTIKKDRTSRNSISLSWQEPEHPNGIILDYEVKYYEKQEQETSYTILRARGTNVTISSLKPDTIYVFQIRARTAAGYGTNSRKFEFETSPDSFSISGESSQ
Procedure, shortened: as §1

Row | Molecule | hEphA7-SEAP-: absorbance at 450 nm, percentage with respect to hEphA4-SEAP-His as 100% (human EphA7) [%] | hEphA6-SEAP-: absorbance at 450 nm, percentage with respect to hEphA4-SEAP-His as 100% (human EphA6) [%] | hEphA3-SEAP-: absorbance at 450 nm, percentage with respect to hEphA4-SEAP-His as 100% (human EphA3) [%]
1 | 133 (antibody, V domains shown, synthetic humanized antibody heavy chain variable region sequence; synthetic humanized antibody light chain variable region sequence) VH: QVQLVQSGSELKKPGASVKVSCKASGYTFTDYSMHWVRQAPGQGLEWMGWINTETGEPTYAQGFTGRFVFSLDTSVSTAYLQISSLKAEDTAVYYCARIPLYYYGSRYWYFDVWGQGTTVTVSS VL: EIVMTQSPATLSVSPGERATLSCRASENIYRNLAWYQQKPGQSPRLLIYAATNLADGIPARFSGSGSGTEYTLTISSLQSEDFAVYYCQHFWGTPWTFGQGTKVEIK | 4.6 | 8.8 | 5.0
2 | 134 (antibody, V domains shown, synthetic humanized antibody heavy chain variable region sequence; synthetic humanized antibody light chain variable region sequence) VH: QVQLVQSGSELKKPGASVKVSCKASGYTFTDYSMHWVRQAPGQGLKWMGWINTETGEPTYAQGFTGRFVFSLDTSVSTAYLQISSLKAEDTAVYYCARIPLYYYGSRYWYFDVWGQGTTVTVSS VL: EIVMTQSPATLSVSPGERATLSCRASENIYRNLAWYQQKPGQSPRLLIYAATNLADGIPARFSGSGSGTEYTLTISSLQSEDFAVYYCQHFWGTPWTFGQGTKVEIK | 5.1 | 9.6 | 5.0
3 | 75 (antibody, synthetic humanized antibody heavy chain variable region sequence; synthetic humanized antibody light chain variable region sequence; synthetic antibody constant region sequence) VH: QVQLVQSGSELKKPGASVKVSCKASGYTFTDYSMHWVRQAPGQGLEWMGWINTETGEPTYAQGFTGRFVFSLDTSVSTAYLQISSLKAEDTAVYYCARIPLYYYGSRYWYFDVWGQGTTVTVSS VL: DIQMTQSPSSLSASVGDRVTITCRASENIYRNLAWYQQKPGKAPKLLVYAATNLADGVPSRFSGSGSGTDYTLTISSLQPEDFATYYCQHFWGTPWTFGQGTKVEIK ASTKGPSVFPLAPSSKSTSGGTAALGCLVKDYFPEPVTVSWNSGALTSGVHTFPAVLQSSGLYSLSSVVTVPSSSLGTQTYICNVNHKPSNTKVDKRVEPKSCDKTHTCPPCPAPPAAAPSVFLFPPKPKDTLMISRTPEVTCVVVDVSHEDPEVQFNWYVDGVEVHNAKTKPREEQFNSTFRVVSVLTVVHQDWLNGKEYKCKVSNKGLPAPIEKTISKTKGQPREPQVYTLPPSREEMTKNQVSLTCLVKGFYPSDIAVEWESNGQPENNYKTTPPMLDSDGSFFLYSKLTVDKSRWQQGNVFSCSVMHEALHNHYTQKSLSLSPG | 4.7 | 8.3 | 4.8
4 | 77 (antibody, V domains shown, synthetic humanized antibody heavy chain variable region sequence; synthetic humanized antibody light chain variable region sequence) VH: QVQLVQSGSELKKPGASVKVSCKASGYTFTDYSMHWVRQAPGQGLEWMGWINTETGEPTYADDFKGRFVFSLDTSVSTAYLQISSLKAEDTAVYYCARIPLYYYGSRYWYFDVWGQGTTVTVSS VL: DIQMTQSPSSLSASVGDRVTITCRASENIYRNLAWYQQKPGKAPKLLVYAATNLADGVPSRFSGSGSGTDYTLTISSLQPEDFATYYCQHFWGTPWTFGQGTKVEIK | 4.3 | 6.0 | 4.5
5 | 132 (antibody, V domains shown, synthetic humanized antibody heavy chain variable region sequence; synthetic humanized antibody light chain variable region sequence) VH: QIQLVQSGSELKKPGASVKVSCKASGYTFTDYSMHWVRQAPGQGLKWMGWINTETGEPTYAQGFTGRFVFSLDTSVSTAYLQISSLKAEDTAVYYCARIPLYYYGSRYWYFDVWGQGTTVTVSS VL: EIVMTQSPATLSVSPGERATLSCRASENIYRNLAWYQQKPGQSPRLLIYAATNLADGIPARFSGSGSGTEYTLTISSLQSEDFAVYYCQHFWGTPWTFGQGTKVEIK | 4.5 | 9.7 | 4.8
6 | 135 (antibody, V domains shown, synthetic humanized antibody heavy chain variable region sequence; synthetic humanized antibody light chain variable region sequence) VH: QVQLVQSGSELKKPGASVKVSCKASGYTFTDYSMHWVRQAPGQGLEWMGWINTETGEPTYADDFKGRFVFSLDTSVSTAYLQISSLKAEDTAVYYCARIPLYYYGSRYWYFDVWGQGTTVTVSS VL: EIVMTQSPATLSVSPGERATLSCRASENIYRNLAWYQQKPGQSPRLLIYAATNLADGIPARFSGSGSGTEYTLTISSLQSEDFAVYYCQHFWGTPWTFGQGTKVEIK | 5.2 | 7.0 | 5.0
7 | 76 (antibody, V domains shown, synthetic humanized antibody heavy chain variable region sequence; synthetic humanized antibody light chain variable region sequence) VH: QVQLVQSGSELKKPGASVKVSCKASGYTFTDYSMHWVRQAPGQGLKWMGWINTETGEPTYAQGFTGRFVFSLDTSVSTAYLQISSLKAEDTAVYYCARIPLYYYGSRYWYFDVWGQGTTVTVSS VL: DIQMTQSPSSLSASVGDRVTITCRASENIYRNLAWYQQKPGKAPKLLVYAATNLADGVPSRFSGSGSGTDYTLTISSLQPEDFATYYCQHFWGTPWTFGQGTKVEIK | 4.8 | 7.9 | 4.9
8 | 67 (antibody, V domains shown, synthetic humanized antibody heavy chain variable region sequence; synthetic humanized antibody light chain variable region sequence) VH: QIQLVQSGSELKKPGASVKVSCKASGYTFTDYSMHWVRQAPGQGLKWMGWINTETGEPTYAQGFTGRFVFSLDTSVSTAYLQISSLKAEDTAVYYCARIPLYYYGSRYWYFDVWGQGTTVTVSS VL: DIQMTQSPSSLSASVGDRVTITCRASENIYRNLAWYQQKPGKAPKLLVYAATNLADGVPSRFSGSGSGTDYTLTISSLQPEDFATYYCQHFWGTPWTFGQGTKVEIK | 4.7 | 7.3 | 4.8
